According to a protein production outcome set (Wang et al. 2014):

Test: label from the status in PepcDB records

Sequence | protein production
MGDPAPARSLDDIDLSALRDPAGIFELVEVVGNGTYGQVYKGRHVKTGQLAAIKVMDVTEDEEEEIKQEINMLKKYSHHRNIATYYGAFIKKSPPGNDDQLWLVMEFCGAGSVTDLVKNTKGNALKEDCIAYICREILRGLAHLHAHKVIHRDIKGQNVLLTENAEVKLVDFGVSAQLDRTVGRRNTFIGTPYWMAPEVIACDENPDATYDYRSDIWSLGITAIEMAEGAPPLCDMHPMRALFLIPRNPPPRLKSKKWSKKFIDFIDTCLIKTYLSRPPTEQLLKFPFIRDQPTERQVRIQLKDHIDRSRKKRGEKEETEYEYSGSEEEDDSHGEEGEPSSIMNVPGESTLRREFLRLQQENKSNSEALKQQQQLQQQQQRDPEAHIKHLLHQRQRRIEEQKEERRRVEEQQRREREQRKLQEKEQQRRLEDMQALRREEERRQAEREQEYKRKQLEEQRQSERLQRQLQQEHAYLKSLQQQQQQQQLQKQQQQQLLPGDRKPLYHYGRGMNPADKPAWAREVEERTRMNKQQNSPLAKSKPGSTGPEPPIPQASPGPPGPLSQTPPMQRPVEPQEGPHKSLVAHRVPLKPYAAPVPRSQSLQDQPTRNLAAFPASHDPDPAIPAPTATPSARGAVIRQNSDPTSEGPGPSPNPPAWVRPDNEAPPKVPQRTSSIATALNTSGAGGSRPAQAVRARPRSNSAWQIYLQRRAERGTPKPPGPPAQPPGPPNASSNPDLRRSDPGWERSDSVLPASHGHLPQAGSLERNRVGVSSKPDSSPVLSPGNKAKPDDHRSRPGRPADFVLLKERTLDEAPRPPKKAMDYSSSSEEVESSEDDEEEGEGGPAEGSRDTPGGRSDGDTDSVSTMVVHDVEEITGTQPPYGGGTMVVQRTPEEERNLLHADSNGYTNLPDVVQPSHSPTENSKGQSPPSKDGSGDYQSRGLVKAPGKSSFTMFVDLGIYQPGGSGDSIPITALVGGEGTRLDQLQYDVRKGSVVNVNPTNTRAHSETPEIRKYKKRFNSEILCAALWGVNLLVGTENGLMLLDRSGQGKVYGLIGRRRFQQMDVLEGLNLLITISGKRNKLRVYYLSWLRNKILHNDPEVEKKQGWTTVGDMEGCGHYRVVKYERIKFLVIALKSSVEVYAWAPKPYHKFMAFKSFADLPHRPLLVDLTVEEGQRLKVIYGSSAGFHAVDVDSGNSYDIYIPVHIQSQITPHAIIFLPNTDGMEMLLCYEDEGVYVNTYGRIIKDVVLQWGEMPTSVAYICSNQIMGWGEKAIEIRSVETGHLDGVFMHKRAQRLKFLCERNDKVFFASVRSGGSSQVYFMTLNRNCIMNW | failed
MENSRHNEFFLPLLLCIILPIIFMLTTNIKILRKTFSFILQNSFLQSFVTIFISIILEALPFIIIGVFLSSLIQVFISEETLSRIIPKNIVLGILSAATIGLIFPVCDCAIVPIVRRLLKKGLPLPIGITFMLSVPIINPVVLTSTYYAFLSNPHAPLIRAVAGWISAVLIGFIINKLDKSKTKQAKLHEILFNERVYMPKNNPIVTSNHNHEHHKCSCGHVHHEEEKFSALTLVHVLDHVSLELQDVGRFVIMGAFLSALMQTFIPRKYILSIGHGNISSIIVMMILAYVLCVCSETDAFIARTFVNQFTNGSIVAFLIFGPMIDIKNTLMLCETFNLKFVFKLVSIIIVVCFLIGLAFNFVKIPL | failed
MRIRFSRCASPRGKSSTGVIVPVCSAIYSIRRFWRWNKMKISVVIPTFNRCHLLAEAINSALDQASSELEVEAVIVDDESDDGTAAWLETAFAGEHRVRVLVNGRGKRPAGARNTGILAARHPKVGVIFSRARYEQDETEVPYMDPNFECKLCYASIATEDKDAVVFDRSYFGHLLKYSCYFNLSAVVMTADAARQLMSESLHIAEDFKFWVRLSHEQIFACLKVPQIRYRSHSANIPFKADKDPAGNTPSMLHTYRLMLGYPGLARSNREQLRKHMAKEYFDWAYRCSRKGRLAEALRLRLALFDLLWKNVVACVKLPWIGLRYRADRVGSTEQ | failed
GYDHKKMGITAKGAWVGVQRHFRERDINVQQDSISVIGIGDMAGDVFGNGLLMSDKLQLVAAFNHLHIFIDPNPEPASSFAERERLFNLPRSSWTDYDTSIMSAGGGIFPRSLKSIAITEQMKARFDIKADKLTPTELLHALLKAPVDLLWNGGIGTYVKSSEESHADVGDKANDALRVDGNELRCKVVGEGGNLGMTQLGRVEFGLNGGATNTDFIDNAGGVDCSDHEVNIKILLNEVVQAGDMTEKQRNQLLESMTDEVGHLVLGNNYKQTQALSLAARRAYERIAEYKRLMSDLEARGKLD | not failed
MGHHHHHHSHADLPQWVSERLLQQINQLTNYEPVIGIMGKTGVGKSSLCNALFAGDISPVSDVAACTREPLRFRLQVGDRYITLMDLPGVGESGARDTEYAALYREQLPRLDLVLWLIKADDRALTVDEHFYHQVIGEVYRHKVLFVISQSDKAEPTSGGGQLSTAQKQNISRKICLLHELFQPVHPVCAVSVRLQWGLKVMAERMIKCLP | not failed
